According to patent US20230331827A1, “POTASSIUM CHANNEL INHIBITORS” (priority 2017, published 2023):

Legend:
human ASIC1a (human) = biological target: T1, human ASIC1a (human) (UniProt P78348); experiment: cell-based or functional assay
T1 sequence (looked up): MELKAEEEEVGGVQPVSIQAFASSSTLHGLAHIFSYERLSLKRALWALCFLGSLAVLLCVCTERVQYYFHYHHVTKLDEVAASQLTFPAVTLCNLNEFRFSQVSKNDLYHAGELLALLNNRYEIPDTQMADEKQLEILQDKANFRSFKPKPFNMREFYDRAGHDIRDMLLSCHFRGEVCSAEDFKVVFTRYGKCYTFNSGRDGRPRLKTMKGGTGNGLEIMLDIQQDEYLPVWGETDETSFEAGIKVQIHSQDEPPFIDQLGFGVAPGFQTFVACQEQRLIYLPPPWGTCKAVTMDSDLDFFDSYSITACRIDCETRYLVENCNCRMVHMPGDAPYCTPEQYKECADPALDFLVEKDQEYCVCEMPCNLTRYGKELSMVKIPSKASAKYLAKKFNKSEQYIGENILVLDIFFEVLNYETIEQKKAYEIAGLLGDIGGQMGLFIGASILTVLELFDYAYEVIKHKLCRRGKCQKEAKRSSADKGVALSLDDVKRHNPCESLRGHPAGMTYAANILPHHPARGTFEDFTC

human Kv1.1 (human) = human Kv1.1 (human) (UniProt Q09470); experiment: cell-based or functional assay
Chain of human Kv1.1 (human) (Q09470 whole entry): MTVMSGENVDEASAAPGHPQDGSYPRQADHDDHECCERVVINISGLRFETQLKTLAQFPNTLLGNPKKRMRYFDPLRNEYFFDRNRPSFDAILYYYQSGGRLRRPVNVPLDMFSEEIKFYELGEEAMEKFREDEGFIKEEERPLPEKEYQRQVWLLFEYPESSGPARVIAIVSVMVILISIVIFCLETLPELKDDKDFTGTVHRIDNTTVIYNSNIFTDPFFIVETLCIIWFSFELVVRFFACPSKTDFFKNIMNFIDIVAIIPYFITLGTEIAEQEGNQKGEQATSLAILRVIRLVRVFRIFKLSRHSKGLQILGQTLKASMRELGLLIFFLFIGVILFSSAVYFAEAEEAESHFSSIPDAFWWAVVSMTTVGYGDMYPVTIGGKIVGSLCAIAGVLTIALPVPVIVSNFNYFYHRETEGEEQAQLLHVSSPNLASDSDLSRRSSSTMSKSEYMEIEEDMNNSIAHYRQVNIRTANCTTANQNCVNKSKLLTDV

human Kv1.3 (human) = human Kv1.3 (human) (UniProt P22001); experiment: cell-based or functional assay
Chain of human Kv1.3 (human) (P22001 whole entry): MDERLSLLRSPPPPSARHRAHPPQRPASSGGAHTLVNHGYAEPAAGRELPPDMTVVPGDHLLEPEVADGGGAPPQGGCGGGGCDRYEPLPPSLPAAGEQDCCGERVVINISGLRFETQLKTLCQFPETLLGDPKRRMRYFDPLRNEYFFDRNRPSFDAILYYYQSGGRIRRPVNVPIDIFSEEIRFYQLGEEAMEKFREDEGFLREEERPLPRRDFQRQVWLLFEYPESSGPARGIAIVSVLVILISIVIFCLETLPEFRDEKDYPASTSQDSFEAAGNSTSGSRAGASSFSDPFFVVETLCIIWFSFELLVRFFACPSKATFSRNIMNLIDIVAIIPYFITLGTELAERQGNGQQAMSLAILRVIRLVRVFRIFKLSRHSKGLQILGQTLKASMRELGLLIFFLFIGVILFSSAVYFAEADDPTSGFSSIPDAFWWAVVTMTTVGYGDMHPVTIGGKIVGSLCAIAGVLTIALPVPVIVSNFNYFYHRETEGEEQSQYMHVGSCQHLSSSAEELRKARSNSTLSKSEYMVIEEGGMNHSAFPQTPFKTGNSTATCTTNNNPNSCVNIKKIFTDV

trypsin [1] = experiment: phage TRF, GlyAla mutant against parent clone
trypsin [2] = experiment: monoclonal phage ELISA on trypsin
trypsin [3] = experiment: flow cytometry, biotinylated trypsin/streptavidin-APC
trypsin [4] = experiment: flow cytometry of HEK293 cells displaying the scFv-Fc, 15 days post transfection after blasticidin selection; untransfected cells (panel C): Q2 0.043

B1: KB_A07 IgG1 (EETI-II fusion) (antibody, V domains shown)
VH: EVQLVESGGGLVRPGGSLRLSCAASGFTFSSYAMSWVRQAPGKGLEWVSAISGSGGSTYYADSVKGRFTISRDNTKNSLYLQMTSLRADDTAFYYCVKDFGPGYGTGWFDYWGPGTLVTVSS
VL: YLNWYQQKPGKAPKLLIYAAGVCPRILMRCKQDSDCLAGCVCGPNGFCGSRSGVPSRFSGSGSGTDFTLTISSLQPEDFATYYCQQGASPPYTFGQGTKVEIKR
% ASIC1a current remaining at 6 µM, QPatch (human ASIC1a (human)): 70.9% | IC50, channel current, QPatch patch clamp (human Kv1.1 (human)): > 10 µM | IC50, channel current, QPatch patch clamp (human Kv1.3 (human)): > 10 µM | IC50, huKv1.3 current, QPatch patch clamp (human Kv1.3 (human)): > 10 µM

B2: KB_A01 GlyAla mutant (scFv on phage) (scFv, V domains shown)
VH: B1 VH
VL: YLNWYQQKPGKAPKLLIYAAEVCGAILMRCKQDSDCLAGCVCGPNGFCGGTSGVPSRFSGSRSGTEFTLTISSLQPEDFATYYCQKVDDYPLTFGGGTKVEIKR
% reduction in binding signal (trypsin [1]): 93%

B3: KB_A11 GlyAla mutant (scFv on phage) (scFv, V domains shown)
VH: B1 VH
VL: YLNWYQQKPGKAPKLLIYAAEICGAILMRCKQDSDCLAGCVCGPNGFCGPSSGIPARFSGSGYGTDFTLTINNIESEDAAYYFCLQHDNFPYTFGQGTKVEIKR
% reduction in binding signal (trypsin [1]): 100%

B4: G11 (EET 5-3 KnotBody) (scFv, V domains shown)
VH: B1 VH
VL: AVNWYQQLPGKAPKLLIYAAGGCGPNGFCGSGSDGGVCPRILMRCKQDSDCLAGCGQSSGVSDRFSGSKSGTSATLDITGLQTGDEADYYCGTWDNSLSVGVFGGGTKVTVLG
ELISA signal (trypsin [2]): 27600

B5: F03 (EET 5-3 KnotBody) (scFv, V domains shown)
VH: B1 VH
VL: AVNWYQQLPGRAPKLLIYAAGGCGPNGFCGSGGDGGVCPRILMRCKQDSDCLAGCGAHSGIPERFSGSKSGTSASLAISGLRSEDEADYYCAAWDDSLNGWVFGGGTKVTVLG
ELISA signal (trypsin [2]): 68000

B6: KB_A07 scFv-Fc displayed on HEK293 cells (Fc fusion)
VH: B1 VH
VL: DIQMTQSPSSLSASVGDRVTITCRASQSISSYLNWYQQKPGKAPKLLIYAAGVCPRILMRCKQDSDCLAGCVCGPNGFCGSRSGVPSRFSGSGSGTDFTLTISSLQPEDFATYYCQQGASPPYTFGQGTKVEIKRT
% of transfected HEK293 cells dual stained for Fc and trypsin (trypsin [3]): 34% | Q2, share of cells stained by both anti-Fc-PE (FL2) and biotinylated trypsin/streptavidin-APC (FL4) (trypsin [4]): 33.8%

B7: KB_A12 scFv-Fc displayed on HEK293 cells (Fc fusion)
VH: B1 VH
VL: QSVLTQPPSVSEAPRQRVTITCSGSSSNIGNNAVNWYQQLPGKAPKLLIYAAGRCPRILMRCKQDSDCLAGCVCGPNGFCGANSGVSDRFSAAKSGTSASLAINGLRSEDEADYYCAAWDDSLNGYVFGTGTKLTVLGQP
% of transfected HEK293 cells dual stained for Fc and trypsin (trypsin [3]): 11% | Q2, share of cells stained by both anti-Fc-PE (FL2) and biotinylated trypsin/streptavidin-APC (FL4) (trypsin [4]): 11.2%

B8: KB_A12 IgG1 (EETI-II fusion) (antibody, V domains shown)
VH: B1 VH
VL: AVNWYQQLPGKAPKLLIYAAGRCPRILMRCKQDSDCLAGCVCGPNGFCGANSGVSDRFSAAKSGTSASLAINGLRSEDEADYYCAAWDDSLNGYVFGTGTKLTVLG
% ASIC1a current remaining at 3.3 µM, QPatch (human ASIC1a (human)): 67.4% | IC50, channel current, QPatch patch clamp (human Kv1.1 (human)): > 10 µM | IC50, channel current, QPatch patch clamp (human Kv1.3 (human)): > 10 µM | IC50, huKv1.3 current, QPatch patch clamp (human Kv1.3 (human)): > 10 µM
